Values quoted from earlier work in PMC4464844.

Key:
[1] = biological target: Tyr9 (UniProt position 9, KPKLHYFNARG)
[2] = biological target: Tyr9 (UniProt position 9, KPKLHYFNGRG)
[3] = biological target: Tyr9 (UniProt position 9, RPKLHYPNGRG)

For “Glutathione transferase A1-1 (hGSTA1-1) (Homo sapiens)”, which pKa [1] is on record?
The pKa was 8.1.

Which pKa [2] does the source give for “Glutathione transferase A1-1 GIMFhelix mutant (Homo sapiens; A12G;L107I;L108M;V111F;residues 208-222 replaced by the GSTA4-4 sequence)” here?
The pKa was 7.3.

For “Glutathione transferase A4-4 (hGSTA4-4) (Homo sapiens)”, which pKa [3] is on record?
Its pKa is 6.7.
